What was measured:
[1] = target: ThsB2-His6 (Sau–Thoeris ThsB2 with a C-terminal hexahistidyl tag) (Staphylococcus aureus 08BA02176); test: SEC + other: mass photometry; complex assembled from individually purified subunits in the presence of NAD+; Superdex 200 Increase 10/300 GL, 25 mM Tris pH 7.5, 200 mM NaCl, 5% glycerol, 1 mM dithiothreitol; peaks analysed by SDS–PAGE; mass photometry at 100–200 nM
[2] = target: His6-ThsB1 (Sau–Thoeris ThsB1 with an N-terminal hexahistidyl tag) (Staphylococcus aureus 08BA02176); test: as above

## ThsB2-His6 (Sau–Thoeris ThsB2 with a C-terminal hexahistidyl tag) (natural protein)
[1]
  stoichiometry N: 2

B1: Major head protein (Mhp) of phage Φ80α, gp47 (natural protein)
chain: ASNNVKPQVFNPDNVMMHEKKDGTLMNEFTTPILQEVMENSKIMQLGKYEPMEGTEKKFTFWADKPGAYWVGEGQKIETSKATWVNATMRAFKLGVILPVTKEFLNYTYSQFFEEMKPMIAEAFYKKFDEAGILNQGNNPFGKSIAQSIEKTNKVIKGDFTQDNIIDLEALLEDDELEANAFISKTQNRSLLRKIVDPETKERIYDRNSDSLDGLPVVNLKSSNLKRGELITGDFDKLIYGIPQLIEYKIDETAQLSTVKNEDGTPVNLFEQDMVALRATMHVALHIADDKAFAKLVPADKRTDSVPGEV
[2]
  stoichiometry N: 1

Reference: paper PMC12578639
